The values that follow come from article PMC9482650, “Quantitative fragmentomics allow affinity mapping of interactomes” (Nature Communications, 2022).

Experiment in all cases: holdup assay
Set-up in all cases: key: below the threshold = too weak to quantify, mostly under pKd 3.1 to 4

Assay [1] has as its target T1, MPDZ_13, O75970.
T1 sequence (O75970 1982-2070, limits assumed, looked up): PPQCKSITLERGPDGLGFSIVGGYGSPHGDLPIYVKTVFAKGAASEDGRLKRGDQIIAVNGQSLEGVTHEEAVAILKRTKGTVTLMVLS

Assay [2] deals with MAGI1_5, Q96QZ7.
Sequence of MAGI1_5, Q96QZ7 (Q96QZ7 986-1098): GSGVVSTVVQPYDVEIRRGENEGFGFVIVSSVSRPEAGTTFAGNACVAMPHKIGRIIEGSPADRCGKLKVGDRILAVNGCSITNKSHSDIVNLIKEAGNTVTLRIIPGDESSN
Assay [3] has as its target T2, MPP1, Q00013.
T2 sequence (Q00013 66-162, limits assumed, looked up): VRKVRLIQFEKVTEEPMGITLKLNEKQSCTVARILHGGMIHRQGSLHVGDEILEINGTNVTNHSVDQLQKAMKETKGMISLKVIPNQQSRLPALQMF

For assay [4], the target named is T3, USH1C_1, Q9Y6N9.
T3 sequence (Q9Y6N9 82-179, limits assumed, looked up): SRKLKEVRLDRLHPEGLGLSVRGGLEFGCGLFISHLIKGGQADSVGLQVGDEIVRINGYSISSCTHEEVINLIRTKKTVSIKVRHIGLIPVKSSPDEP

Assay [5] has as its target MAGI1_6, Q96QZ7.
Assay [6] has as its target T4, PTPN13_5, Q12923.
T4 sequence (Q12923 1877-1975, limits assumed, looked up): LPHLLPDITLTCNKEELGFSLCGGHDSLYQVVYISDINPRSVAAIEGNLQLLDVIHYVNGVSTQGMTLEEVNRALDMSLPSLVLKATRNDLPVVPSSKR

The target of assay [7] is SDCBP_1, O00560.
Sequence of SDCBP_1, O00560 (O00560 111-198): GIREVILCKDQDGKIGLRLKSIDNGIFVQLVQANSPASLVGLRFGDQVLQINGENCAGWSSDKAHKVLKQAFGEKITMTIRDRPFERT
Assay [8] addresses CNKSR3, Q6P9H4.
In assay [9] the target is T5, PDZD2_6, O15018.
T5 sequence (O15018 2745-2839, limits assumed, looked up): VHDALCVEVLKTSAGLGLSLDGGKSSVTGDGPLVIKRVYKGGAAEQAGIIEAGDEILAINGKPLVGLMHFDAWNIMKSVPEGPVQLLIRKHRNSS

Assay [10] concerns the target T6, SHANK3, Q9BYB0.
T6 sequence (Q9BYB0 641-750, limits assumed, looked up): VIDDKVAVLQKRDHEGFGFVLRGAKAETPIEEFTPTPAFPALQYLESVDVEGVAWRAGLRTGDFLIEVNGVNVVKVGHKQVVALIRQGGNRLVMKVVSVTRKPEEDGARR

Assay [11] has as its target DLG2_1, Q15700.
The target in assay [12] is NHERF4_3, Q86UT5.
Sequence of NHERF4_3, Q86UT5 (Q86UT5 325-412): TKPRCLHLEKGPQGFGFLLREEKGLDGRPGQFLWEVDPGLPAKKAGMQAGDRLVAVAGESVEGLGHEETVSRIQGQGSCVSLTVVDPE
Assay [13] addresses PREX1_1, Q8TCU6.
Assay [14] deals with RGS3, P49796-9.
Sequence of RGS3, P49796-9 (P49796 other isoform, or with tags, fused parts or gaps): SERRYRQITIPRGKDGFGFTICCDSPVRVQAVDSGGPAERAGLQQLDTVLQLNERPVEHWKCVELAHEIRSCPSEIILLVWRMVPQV
The target in assay [15] is T7, MPDZ_11, O75970.
T7 sequence (O75970 1720-1817, limits assumed, looked up): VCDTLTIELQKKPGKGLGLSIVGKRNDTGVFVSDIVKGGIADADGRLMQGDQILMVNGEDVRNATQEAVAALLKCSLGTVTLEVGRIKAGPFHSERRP

Assay [16] deals with T8, USH1C_2, Q9Y6N9.
T8 sequence (Q9Y6N9 206-303, limits assumed, looked up): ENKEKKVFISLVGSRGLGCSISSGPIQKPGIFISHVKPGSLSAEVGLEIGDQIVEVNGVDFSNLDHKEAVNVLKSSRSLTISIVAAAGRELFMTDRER

The target in assay [17] is PARD3B_2, Q8TEW8.
Sequence of PARD3B_2, Q8TEW8 (Q8TEW8 376-471): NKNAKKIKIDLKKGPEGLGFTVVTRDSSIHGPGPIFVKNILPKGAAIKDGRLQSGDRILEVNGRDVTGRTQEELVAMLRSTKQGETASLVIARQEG
Assay [18] has as its target T9, PDZD2_1, O15018.
T9 sequence (O15018 80-192, limits assumed, looked up): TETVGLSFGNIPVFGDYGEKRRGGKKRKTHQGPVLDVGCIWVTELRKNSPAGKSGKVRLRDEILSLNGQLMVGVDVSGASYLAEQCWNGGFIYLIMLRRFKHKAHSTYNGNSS

Assay [19] deals with T10, MLLT4, P55196.
T10 sequence (P55196 1002-1103, limits assumed, looked up): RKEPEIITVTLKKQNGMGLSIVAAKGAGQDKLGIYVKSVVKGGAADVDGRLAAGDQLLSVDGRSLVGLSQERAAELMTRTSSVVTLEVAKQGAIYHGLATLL

The target in assay [20] is IL16_2, Q14005.
Sequence of IL16_2, Q14005 (Q14005 350-450): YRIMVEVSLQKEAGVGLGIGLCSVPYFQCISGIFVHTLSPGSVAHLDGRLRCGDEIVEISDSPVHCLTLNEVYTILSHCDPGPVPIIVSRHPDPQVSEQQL
Assay [21] has as its target T11, MPDZ_2, O75970.
T11 sequence (O75970 252-347, limits assumed, looked up): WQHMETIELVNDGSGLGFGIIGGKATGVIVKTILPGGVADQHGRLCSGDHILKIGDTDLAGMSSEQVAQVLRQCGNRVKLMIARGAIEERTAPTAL

Assay [22] has as its target LNX1_4, Q8TBB1. The conditions noted are these: plain residues with an end cap or a label only (N-terminal biotin on a linker: (peg)3).
For assay [23], the target named is LMO7, Q8WWI1. The conditions noted are these: plain residues with an end cap or a label only (N-terminal biotin on a linker: (peg)3).
Sequence of LMO7, Q8WWI1 (Q8WWI1 1037-1138): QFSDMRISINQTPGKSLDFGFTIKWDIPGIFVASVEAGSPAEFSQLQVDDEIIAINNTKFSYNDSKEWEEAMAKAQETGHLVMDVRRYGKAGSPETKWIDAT
Assay [24] addresses GIPC3, Q8TF64. The conditions noted are these: plain residues with an end cap or a label only (N-terminal biotin on a linker: (peg)3).
For assay [25], the target named is GRIP2_2, Q9C0E4. The conditions noted are these: plain residues with an end cap or a label only (N-terminal biotin on a linker: (peg)3).
Sequence of GRIP2_2, Q9C0E4 (Q9C0E4 137-245): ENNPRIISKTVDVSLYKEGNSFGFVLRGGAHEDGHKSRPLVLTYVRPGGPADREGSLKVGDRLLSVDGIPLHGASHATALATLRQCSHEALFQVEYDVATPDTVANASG
The target of assay [26] is MAGI1_4, Q96QZ7. The conditions noted are these: plain residues with an end cap or a label only (N-terminal biotin on a linker: (peg)3).
Sequence of MAGI1_4, Q96QZ7 (Q96QZ7 other isoform, or with tags, fused parts or gaps): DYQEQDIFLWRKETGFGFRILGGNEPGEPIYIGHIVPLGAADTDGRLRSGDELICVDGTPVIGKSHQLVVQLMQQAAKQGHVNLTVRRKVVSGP
Assay [27] has as its target Q8IUC4. The conditions noted are these: plain residues with an end cap or a label only (N-terminal biotin on a linker: (peg)3).
[28] abbreviates: modified: phospho on T at position -2 from the C-terminal residue.
[29] abbreviates: plain residues with an end cap or a label only (N-terminal biotin on a linker: (peg)3).

Sequence of CNKSR3, Q6P9H4 (Q6P9H4 203-303): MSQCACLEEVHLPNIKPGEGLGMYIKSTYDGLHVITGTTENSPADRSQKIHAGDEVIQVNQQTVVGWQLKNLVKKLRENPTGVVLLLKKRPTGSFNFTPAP
Sequence of LNX1_4, Q8TBB1 (Q8TBB1 631-726): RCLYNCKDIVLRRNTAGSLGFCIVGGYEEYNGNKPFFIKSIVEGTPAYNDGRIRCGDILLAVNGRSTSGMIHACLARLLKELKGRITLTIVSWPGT
Sequence of MAGI1_6, Q96QZ7 (Q96QZ7 1146-1238): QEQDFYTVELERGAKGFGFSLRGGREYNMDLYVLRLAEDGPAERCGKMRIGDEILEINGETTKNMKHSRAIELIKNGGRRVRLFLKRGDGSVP
Sequence of PREX1_1, Q8TCU6 (Q8TCU6 608-718): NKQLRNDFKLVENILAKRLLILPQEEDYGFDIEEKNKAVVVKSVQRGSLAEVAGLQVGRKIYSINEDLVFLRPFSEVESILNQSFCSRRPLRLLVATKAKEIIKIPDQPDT
Sequence of GIPC3, Q8TF64 (Q8TF64 107-202): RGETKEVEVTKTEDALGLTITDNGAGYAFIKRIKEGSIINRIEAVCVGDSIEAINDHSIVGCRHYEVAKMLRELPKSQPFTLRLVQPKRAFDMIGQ

Take SSRTRRETQL [HPV16-E6_-2P, P03126]: the pKd entry in [1] (setting [28]), in assay [2] (setting [28]), in assay [3] (setting [28]), in assay [4] (setting [28]), in [5] (setting [28]) and in assay [6] (setting [28]) was “below the threshold” each time. Moreover, the pKd entry in assay [7] (setting [28]), in assay [8] (setting [28]), in assay [9] (setting [28]), in assay [10] (setting [28]), in [11] (setting [28]) and in [12] (setting [28]) was “below the threshold” in each case. The pKd (as a rule, −log10 of the Kd, conventionally taken in molar units) in [13] (setting [28]) is “below the threshold”; in assay [14] (setting [28]), “below the threshold”; in assay [15] (setting [28]), “below the threshold”; in assay [16] (setting [28]), 4.45; in assay [17] (setting [28]), “below the threshold”; in assay [18] (setting [28]), “below the threshold”. In addition, the pKd result in [19] (setting [28]), in assay [20] (setting [28]) and in [21] (setting [28]) was “below the threshold” in each case.

Take RYEDTTLVEDTVL [WNV-NS5, Q9Q6P4]: the pKd entry is “below the threshold” in assay [22]; “below the threshold” in [1] (setting [29]); 3.84 in [2] (setting [29]); “below the threshold” in assay [3] (setting [29]); “below the threshold” in assay [4] (setting [29]); “below the threshold” in assay [23]. Moreover, the pKd result in assay [5] (setting [29]) was “below the threshold”; in assay [6] (setting [29]), “below the threshold”; in assay [7] (setting [29]), “below the threshold”; in assay [9] (setting [29]), “below the threshold”; in assay [10] (setting [29]) it was 4.59; in assay [11] (setting [29]), 4.28. Further, the pKd result in assay [12] (setting [29]), in assay [13] (setting [29]), in assay [14] (setting [29]), in [15] (setting [29]), in assay [16] (setting [29]) and in [17] (setting [29]) was “below the threshold” throughout. The pKd entry in [18] (setting [29]), in assay [19] (setting [29]), in [20] (setting [29]) and in assay [21] (setting [29]) was “below the threshold” each time.

As to RRRRSQSRESQC [HBV-HBc, P03193], the pKd entry in assay [22], in assay [1] (setting [29]), in [2] (setting [29]), in assay [3] (setting [29]), in assay [4] (setting [29]) and in [5] (setting [29]) was “below the threshold” each time. Besides, the pKd result in assay [6] (setting [29]), in [24], in assay [7] (setting [29]), in assay [8] (setting [29]), in [25] and in assay [9] (setting [29]) was “below the threshold” throughout. In addition, the pKd result is “below the threshold” in [10] (setting [29]); “below the threshold” in assay [26]; 4.51 in assay [11] (setting [29]); “below the threshold” in [12] (setting [29]); “below the threshold” in assay [13] (setting [29]); “below the threshold” in assay [14] (setting [29]). The pKd result is “below the threshold” in [15] (setting [29]); 4.09 in [16] (setting [29]); 3.85 in assay [17] (setting [29]); “below the threshold” in [18] (setting [29]); “below the threshold” in [19] (setting [29]); “below the threshold” in [20] (setting [29]). For the same molecule, in assay [21] (setting [29]), the pKd entry is on record as “below the threshold”.

In the case of QQSMSSADSTQA [SARS-Cov2-N, P0DTC9], the pKd entry in assay [22], in assay [1] (setting [29]), in assay [2] (setting [29]), in assay [3] (setting [29]), in [4] (setting [29]) and in assay [23] was “below the threshold” each time. The pKd entry in [5] (setting [29]), in [6] (setting [29]), in assay [24], in [7] (setting [29]), in [8] (setting [29]) and in assay [25] was “below the threshold” in each case. For the same molecule, the pKd result in assay [9] (setting [29]), in [10] (setting [29]), in [26], in assay [11] (setting [29]), in assay [12] (setting [29]) and in [13] (setting [29]) was “below the threshold” each time. Also, the pKd result in [14] (setting [29]), in assay [27], in assay [15] (setting [29]), in [16] (setting [29]), in assay [17] (setting [29]) and in assay [18] (setting [29]) was “below the threshold” each time. The pKd entry in assay [19] (setting [29]), in assay [20] (setting [29]) and in [21] (setting [29]) was “below the threshold” each time.
